± gives the uncertainty stated by the source.
Experiment: amyloid nucleation score (Sup35N fusion, yeast selection) (log enrichment); library NNK1; higher = more nucleation; inactive = no reads after selection
Method in brief: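 The nucleation score is the log enrichment of output over input reads, calculated with DiMSum and centred on the mode score of non-aggregating sequences. Sequences with under 100 input reads were excluded. Reads came from Illumina sequencing of plasmid inserts from psi-negative yeast expressing Sup35N fused to peptides of 20 random codons, induced 24 hours with 100 μM copper sulfate and grown 7 days at 30°C without adenine and uracil.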

| Substance | amyloid nucleation score |
| --- | --- |
| CVGRQLAGKAYLVLRWRECD | -0.372 ± 1.4 |
| HLILRTLWYKYLREKFSE | -0.286 ± 0.3 |
| LCCAKLRNAIKVVNQCTCGY | 4.4 ± 0.049 |
| SFLNINPRQFSWIYCPLVVY | 2.94 ± 0.23 |
| LCLSSWGLTLSLLIDCIYNR | -0.53 ± 0.48 |
| RYLIPTYF | -1.76 ± 0.57 |
| LSSSWLNKKLH | -0.647 ± 0.9 |
| MEFISFTWLKYSYMYSDVFS | inactive |
| DISDRGTDIFVSTPGSSMLS | 0.503 ± 0.43 |
| RCYCDNFVLGLVEL | 0.267 ± 0.29 |
| NLASNVRESVGSGIYLMNIS | 1.97 ± 0.6 |
| DYSCARYEPGNMVLLC | -0.813 ± 1.5 |
| VLFIFRSRFNVE | 3.47 ± 0.11 |
| LDDAWRVWMHSL | 0.981 ± 0.43 |
| MKVRQDRKPYWVAESAMCVC | -0.261 ± 0.59 |
| NLRYYQFRSRSPTAWGHTMF | -0.744 ± 0.58 |
| SFSSPHLPYTCGSSIG | 0.258 ± 0.66 |
| VFLVTIWRSIMVLWNTVW | -0.284 ± 0.47 |
| LGKIAQLYSEEVEQKSGSGV | -0.539 ± 0.42 |
| LQVVALW | 0.123 ± 0.56 |
| IVGIVT | 1.04 ± 0.35 |
| SFVCRCFSMCNGEILFLIPY | 0.644 ± 1 |
| CSSKGCLVSESFLHLMTNLC | 0.969 ± 0.42 |
| IARAVSSESASVWVKDT | -1.62 ± 2.7 |
| NVKPSDDNVSLRNYGIRYLE | -0.29 ± 1.1 |

| Substance | amyloid nucleation score |
| --- | --- |
| HLPTKFLGVPNKLAYSTAPV | -0.401 ± 0.42 |
| YLQFVRQRVCWLRLRPMMKA | -0.183 ± 0.56 |
| SRGLFCWWRSTWRGVL | -1.28 ± 2.4 |
| GSTQPCRNTFLLFLPALTIP | inactive |
| RHCLKVFSEDTYESVKVVLR | 0.428 ± 0.75 |
| NMLFLSRGDP | -0.499 ± 1.9 |
| LYWNVVN | -0.578 ± 0.5 |
| VRWDPVRRIWFALR | inactive |
| QSFFHCVLYAIPHVRLS | -1.07 ± 1.1 |
| MMCGNLY | 0.625 ± 0.7 |
| CGAELRIGGCSGPGGMFQTR | 0.031 ± 0.27 |
| LMMQRERPFRLYL | -1.34 ± 1.6 |
| FANLDSMNLIGKGFSMNYAL | -0.614 ± 0.97 |
| DRAWTGVWDDESPTT | -0.383 ± 1.7 |
| VFIDGLTSYTEIMRL | inactive |
| YLFKSISCNSGRTRNQPKGQ | -0.195 ± 1.4 |
| WGQLIRGRNRSSQGEEMRYL | -0.148 ± 0.26 |
| WKFLFVVFIYSNYVVGLLDN | -0.915 ± 0.67 |
| QVWSPHSVSKFGPGPPVTEA | -0.388 ± 1.4 |
| LFYNICFYA | 6.738 ± 0.048 |
| FPYRGLLFTRLIPAAVGKGA | 0.171 ± 0.74 |
| CCYDPNGLAKNKTW | -0.013 ± 0.65 |
| NADCAYYDERYRYSSWLYFY | -1.2 ± 1.1 |
| VVVVIFDFRCNKLQ | 2.28 ± 0.2 |
| DPMHYL | 4.55 ± 0.098 |

| Substance | amyloid nucleation score |
| --- | --- |
| SYPKGGLPCGWIRTPPWRFH | 0.42 ± 0.59 |
| FKDLNIWDWKNGAHITNCLG | 1.05 ± 0.63 |
| LRKALRLDVHLGTNLYLNSF | 0.542 ± 0.75 |
| AMMPLVLNQVVFDVAALTNR | 7.68 ± 0.054 |
| FAFRRSI | 0.332 ± 0.9 |
| FVWIWYCPIYHCEVLARSPR | -0.614 ± 0.83 |
| ELSMCYYWRKSYIQSLGIRW | 0.733 ± 0.27 |
| PANIVAFGGLMSIPLVLPVL | -0.104 ± 0.4 |
| GCKGGSATCSTRTWMCSWGG | 2.27 ± 0.12 |
| ARYPRGDGVGDMSSRLIVVY | 1.26 ± 0.2 |
| KWCDMRGYGQRFRCGRMVHV | -0.727 ± 0.73 |
| LLFLSMMVSASCC | 1.09 ± 0.39 |
| YYYGKVA | 0.227 ± 0.57 |
| SGAVCIQALKVDTQCFADMI | -0.413 ± 0.38 |
| AVYAAYFWGSI | -0.065 ± 0.69 |
| DLVSTVKDGAECDDKEECSL | -0.147 ± 0.26 |
| TFFLVLVSPD | 0.059 ± 1.4 |
| TRTRLEHNSVRKFWEL | inactive |
| LHERRYSLLSLESLIHNKSC | -0.752 ± 0.61 |
| LCMMMVQPLQGLSSAVTWSQ | -0.54 ± 0.35 |
| IFYFELPKFCKIKDISSKWV | inactive |
| CRSFYIIEIVKMGPNGRKGV | -1 ± 0.78 |
| VGTTDG | inactive |
| LGFAFQNVTKALNLTFAYGS | 0.81 ± 0.15 |
| QMYFSFYLLCCLSSEFSI | 3.02 ± 0.11 |

| Substance | amyloid nucleation score |
| --- | --- |
| NSDGSLSKTRKRAGAQVSRQ | 0.312 ± 1.1 |
| SNVHCPWKL | -1.74 ± 2.7 |
| KCSVCF | 2.24 ± 0.35 |
| TENVLLTYVFYAKSRLGSVV | 0.921 ± 0.56 |
| RIPASFRITYVDSIKCKPF | 4.15 ± 0.088 |
| SGTESEFKVKMNKLQSSYMG | -0.022 ± 0.45 |
| TVFFPFLTNSRGDRLRDCWM | -0.65 ± 1.1 |
| FIRVMRA | inactive |
| NFSYMLLLAPSKVTRAGCFV | -0.134 ± 1.3 |
| RTSLSLSKVAFNWMFQRYSS | 0.181 ± 1 |
| VQSIRRKVLETRQERVGAQR | 0.04 ± 0.42 |
| LCELQYAKWIMKLVYKTFTT | inactive |
| VAHSLYLNIYGFQLMS | 7.454 ± 0.06 |
| MYSHFCVYCNFYLSCNSSLI | 7.034 ± 0.05 |
| NFRAWS | 0.129 ± 0.93 |
| NAACLVLGNVSSFEYSSQMG | 2.41 ± 0.27 |
| EDTSMELWVSAGIRGGLPLV | -1.13 ± 0.94 |
| WRGRVTKFRVLH | 0.105 ± 0.53 |
| IISLVNVWQNMCR | 5.15 ± 0.077 |
| EFWGVSLLVFVFCELIGIFC | -0.479 ± 0.38 |
| SNWFCGFYDWISVLFNSLKL | 1.42 ± 0.65 |
| FNDLYLGAYSRREDTNYVRL | 0.198 ± 0.56 |
| MMVLKFGMLVLSGDLAPATS | 0.854 ± 0.72 |
| TLVIVTFFMIFIGMVSVFYR | 1.27 ± 0.25 |
| PFLQQNKIFNGLYEMTNWVA | inactive |

| Substance | amyloid nucleation score |
| --- | --- |
| NKYVVETDH | -0.604 ± 1.1 |
| FIYMQSVCAWFISWNSFR | 0.355 ± 0.86 |
| EAGHSIFNGNWRGID | -0.536 ± 1.2 |
| VGSSLDMPAPKRVGSEYCSV | 0.279 ± 0.66 |
| TDEVDDIQF | 0.552 ± 0.59 |
| FSVARFGWFLVSALLQGWDR | -0.142 ± 0.55 |
| MIVYNMFGMNYYLFILDG | 7.508 ± 0.048 |
| EFTVPRWTPTGHTSGSLEWV | 0.22 ± 0.41 |
| PTGVMM | -0.338 ± 0.51 |
| VSRWYVILNML | 4.03 ± 0.11 |
| GRMTVRNCGQDPLVFRTYQG | -1.13 ± 2.7 |
| ARTGPTSASVGGLQPVCPGD | -0.019 ± 0.55 |
| TNVKQQACRLRSS | 4.83 ± 0.063 |
| DSTILNSLSPVWPRSATGPS | -0.529 ± 0.63 |
| SLVSPRCSKMMFWGLPGVMM | 0.088 ± 0.29 |
| CYCFET | -0.381 ± 0.71 |
| VITGYVCMDSVQFIWYVVWV | -0.638 ± 1 |
| LNGVNLRGFTRWLVGCGDVD | 0.141 ± 0.65 |
| GKHLTRNAWGRLSLVTDCVR | 0.486 ± 0.5 |
| STRICWGTCFDKLDMGGSR | 1.95 ± 0.34 |
| AILRSAM | 0.284 ± 0.46 |
| LFHGCLVGLSMRKVKKKNPA | 0.277 ± 0.28 |
| KFRDPYCKHRWAGLGKQSGD | 0.052 ± 0.4 |
| GNYVVVVGYN | 0.326 ± 0.5 |
| VTYVMCFAMEMMVGRCRWGG | -0.029 ± 1.4 |

| Substance | amyloid nucleation score |
| --- | --- |
| SLQPVYAATCSSFHYSFFAG | 4.89 ± 0.074 |
| TAPKIFLGGIL | inactive |
| TRHGLGRFVHSRTVVFIGIW | -0.642 ± 0.82 |
| LCYFQGSWYLVRCAIALTYV | 0.327 ± 0.48 |
| LSRIDRFTVGENMVTATFLI | inactive |
| CSNRWCLKTRVERVMERGSV | 0.218 ± 0.54 |
| FGHYALRANILLTPITKGMS | 0.892 ± 0.56 |
| NARPYRPSFILQSL | -0.698 ± 0.54 |
| VWDRWDSGHVCYSNMAVWNV | 0.536 ± 0.36 |
| DFTCIRMNQSFVIRAFGALC | 3.75 ± 0.16 |
| SNSVRNRRIFKKSTVRH | -0.055 ± 0.36 |
| LVSWSTVDVSQLTAWKKPAG | -0.431 ± 0.36 |
| YYHRSNTLLSIYVSKLLTNN | -0.183 ± 1.2 |
| TCFMLKWIKQRLIDGSVKGR | 0.512 ± 1.2 |
| YAPLLLSWAYFGV | 1.31 ± 0.25 |
| LALHEWLWLFDTFH | -0.097 ± 0.62 |
| FYYGSVSLSWF | inactive |
| IVWYELIESNVLKSKGCVVN | -0.322 ± 1.1 |
| LFVRFKTYVLP | 0.663 ± 0.3 |
| SDKLTRFSTRVFR | -0.586 ± 0.39 |
| LASGNILAICWTRSEGSDTL | -0.313 ± 1.1 |
| SWYIKVFRFGLFHWSSGVGW | inactive |
| HNLYMWVFCCCQYRMNFSWS | 3.49 ± 0.11 |
| DMVVRDQHL | 4.7 ± 0.066 |
| VFVVNTTESWHNLALFWSSR | 0.382 ± 0.45 |

| Substance | amyloid nucleation score |
| --- | --- |
| GSGSVHSWHSLINSSDIFVT | -0.682 ± 0.81 |
| RMLTARNGLGMMRL | -0.162 ± 1.1 |
| SYVPANY | -1.82 ± 1.1 |
| LGYVYSKSTSSTQSLFICSG | -0.287 ± 0.26 |
| MTCDVSKMCVSLRVVTSNGG | 1.27 ± 0.31 |
| LMYSNRYF | 4.1 ± 0.079 |
| NGMSSFRCLYMWARTFPVSN | -0.424 ± 0.99 |
| YWDYNNFRFFLRKLSFISRL | 0.822 ± 1 |
| NCNIMNFIDTCLCGAMYYFR | 4.12 ± 0.078 |
| AYLVFDGQ | -0.283 ± 0.37 |
| YVTVEIMGYVTKVVTITLW | -0.419 ± 0.44 |
| ISVCFWSIKYRSWAILMPKG | 0.077 ± 0.58 |
| TSRGGLFYSGVLICAGGIRM | -0.032 ± 0.54 |
| KADIFYSLCFLRVEG | -0.338 ± 0.79 |
| IMSYLKTLSPVIAMRTIERP | 0.821 ± 0.5 |
| PPFDSDKA | 0.335 ± 0.77 |
| SSVFCFIGKASEAVILAIYC | -0.052 ± 0.79 |
| SCTPWAVLFMLKSALGSLRG | 0.708 ± 0.71 |
| GTLHSKCRGICLDCVAIVIL | -0.092 ± 0.39 |
| FQSARR | 0.575 ± 0.36 |
| VSCWLQISDLRAVAWPLRSF | 0.588 ± 0.21 |
